Assay [1] has as its target T1, SARS-CoV-2 RBD mutant V367F (SARS-CoV-2, UniProt P0DTC2 319-541).
T1 construct: bought variant RBD; also called SPD-S52H4, ACRO Biosystems
Description: direct binding to RBD variant (FIG. 7B); format not described further.

The target of assay [2] is T2, SARS-CoV-2 RBD mutant W436R (SARS-CoV-2, UniProt P0DTC2 319-541).
T2 construct: bought variant RBD; also called #SPD-552H7, ACRO Biosystems
The description is as above.

For assay [3], the target named is T3, SARS-CoV-2 RBD mutant N354D/D364Y (SARS-CoV-2, UniProt P0DTC2 319-541).
T3 construct: bought variant RBD; also called SPD-S52H3, ACRO Biosystems
Described as above.

In assay [4] the target is T1, SARS-CoV-2 RBD mutant V367F. Description: competition ELISA, RBD variant coated, competitor biotinylated ACE2. For orientation: In an ELISA, binding on a coated surface is turned into a signal by an enzyme label.
The target in assay [5] is T2, SARS-CoV-2 RBD mutant W436R. Described as above.
Assay [6] has as its target T3, SARS-CoV-2 RBD mutant N354D/D364Y. The assay is described as above.

Several values for one entry are separate records, joined by “and”; a condition that tells them apart may be missing. Identical values can stand only once.

B1: NIH-CoVnb-112 (VHH)
VHH: DVQLQESGGGLVQPGGSLRLSCAASGLTLDYYAIGWFRQAPGKEREGVSCISSSDGSTYYADSVKGRFTTSRDNAKNTVYLQMNSLKPEDTAVYYCAAVPSTYYSGTYYYTCHPGGMDYWGKGTQVTVSS
For the molecule B1, the EC50 in assay [1] is roughly 0.01 µg/mL; in assay [2], roughly 0.01 µg/mL; in assay [3], roughly 0.01 µg/mL; in assay [4], ~0.02 µg/mL and ~1.11 nM; in assay [5], ~0.02 µg/mL and ~1.11 nM; in assay [6], ~1.11 nM and ~0.02 µg/mL.

As a reminder, the EC50 is the concentration that produces a half-maximal response. Low values mean greater potency, high ones weaker potency.
